Target: T1, recombinant N-terminal His-tagged full-length SAMHD1 (human, UniProt Q9Y3Z3 1-626)
T1 construct: also called recombinant FL SAMHD1; recombinant SAMHD1
Assay: pull-down; in vitro pull-down of purified recombinant proteins with an anti-SAMHD1 antibody, analyzed by immunoblot; performed as described in ref. 16
Settings: both partners purified

T1 sequence (Q9Y3Z3 whole entry): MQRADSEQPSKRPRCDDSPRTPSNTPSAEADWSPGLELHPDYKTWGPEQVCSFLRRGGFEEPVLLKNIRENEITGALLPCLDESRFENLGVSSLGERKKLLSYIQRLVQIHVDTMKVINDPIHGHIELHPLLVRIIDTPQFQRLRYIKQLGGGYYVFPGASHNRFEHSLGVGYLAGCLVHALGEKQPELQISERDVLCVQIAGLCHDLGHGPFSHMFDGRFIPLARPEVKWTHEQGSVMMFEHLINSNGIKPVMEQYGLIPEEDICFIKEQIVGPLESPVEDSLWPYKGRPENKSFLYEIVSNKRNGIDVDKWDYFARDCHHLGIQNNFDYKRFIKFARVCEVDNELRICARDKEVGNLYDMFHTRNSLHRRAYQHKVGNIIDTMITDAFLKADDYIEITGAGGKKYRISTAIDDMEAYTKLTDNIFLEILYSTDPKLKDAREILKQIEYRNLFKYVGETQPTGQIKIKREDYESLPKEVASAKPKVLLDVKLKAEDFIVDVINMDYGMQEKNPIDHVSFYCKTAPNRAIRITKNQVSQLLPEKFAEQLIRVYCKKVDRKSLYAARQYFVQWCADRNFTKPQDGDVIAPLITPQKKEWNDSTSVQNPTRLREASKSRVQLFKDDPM

- binding result: binds
B1: purified His-tagged MAVS without the TM domain (aa 1-513) (domain or fragment, human, UniProt Q7Z434 1-513, looked up)
chain: MPFAEDKTYKYICRNFSNFCNVDVVEILPYLPCLTARDQDRLRATCTLSGNRDTLWHLFNTLQRRPGWVEYFIAALRGCELVDLADEVASVYQSYQPRTSDRPPDPLEPPSLPAERPGPPTPAAAHSIPYNSCREKEPSYPMPVQETQAPESPGENSEQALQTLSPRAIPRNPDGGPLESSSDLAALSPLTSSGHQEQDTELGSTHTAGATSSLTPSRGPVSPSVSFQPLARSTPRASRLPGPTGSVVSTGTSFSSSSPGLASAGAAEGKQGAESDQAEPIICSSGAEAPANSLPSKVPTTLMPVNTVALKVPANPASVSTVPSKLPTSSKPPGAVPSNALTNPAPSKLPINSTRAGMVPSKVPTSMVLTKVSASTVPTDGSSRNEETPAAPTPAGATGGSSAWLDSSSENRGLGSELSKPGVLASQVDSPFSGCFEDLAISASTSLGMGPCHGPEENEYKSEGTFGIHVAENPSIQLLEGNPGPPADPDGGPRPQADRKFQEREVPCHRPSP
notes: also called MAVS without TM; recombinant MAVS without the TM domain; source: bought: Origene (AR50771PU-N); purified from E. coli

Reference: article PMC10404699, “SAMHD1 impairs type I interferon induction through the MAVS, IKKε, and IRF7 signaling axis during viral infection” (The Journal of Biological Chemistry, 2023)
